For one substance, EC50 (read off the curve) results are on record in patent US20220315654A1.

Usually EC50 (read off the curve) stands for the midpoint of the concentration-response curve.

The target of this experiment is recombinant cynomolgus monkey PD-L1 soluble protein (biotinylated) (cynomolgus monkey) (UniProt G7PSE7). Kind of experiment: sandwich ELISA: antibody captured on coated anti-human Fc, biotinylated recombinant cynomolgus PD-L1 titrated (x axis, nM), streptavidin-HRP/Amplex red fluorescence.
recombinant cynomolgus monkey PD-L1 soluble protein (biotinylated) (cynomolgus monkey), sequence (G7PSE7 entry or part of it limits assumed): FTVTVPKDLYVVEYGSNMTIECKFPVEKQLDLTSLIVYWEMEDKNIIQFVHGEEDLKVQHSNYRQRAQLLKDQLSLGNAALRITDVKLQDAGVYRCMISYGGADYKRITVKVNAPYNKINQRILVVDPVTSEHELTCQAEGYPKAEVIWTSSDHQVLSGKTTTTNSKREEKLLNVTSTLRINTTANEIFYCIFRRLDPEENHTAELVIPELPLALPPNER

Avelumab (antibody), sequence (VH): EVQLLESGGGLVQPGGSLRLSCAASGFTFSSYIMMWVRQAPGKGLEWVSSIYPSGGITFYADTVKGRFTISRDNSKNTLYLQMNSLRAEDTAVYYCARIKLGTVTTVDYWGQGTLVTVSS
Avelumab (antibody), sequence (VL): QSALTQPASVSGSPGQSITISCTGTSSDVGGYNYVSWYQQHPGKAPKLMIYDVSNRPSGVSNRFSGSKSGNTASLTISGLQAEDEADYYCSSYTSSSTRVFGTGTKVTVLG

Avelumab (antibody): the half-maximal effective concentration (EC50 (read off the curve)) was determined as 0.05 nM.
